Experimental findings from patent US20210079074A1 are described below.

Experiment [1] has as its target FcγRIIa receptor (H131 variant) (UniProt P12318). Briefly: cell-based or functional assay.
Experiment [2] addresses FcγRIIIa receptor (V158 variant) (UniProt P08637). Nature of the experiment: cell-based or functional assay.

Sequence of FcγRIIa receptor (H131 variant) (P12318 34-317 limits assumed, change not shown): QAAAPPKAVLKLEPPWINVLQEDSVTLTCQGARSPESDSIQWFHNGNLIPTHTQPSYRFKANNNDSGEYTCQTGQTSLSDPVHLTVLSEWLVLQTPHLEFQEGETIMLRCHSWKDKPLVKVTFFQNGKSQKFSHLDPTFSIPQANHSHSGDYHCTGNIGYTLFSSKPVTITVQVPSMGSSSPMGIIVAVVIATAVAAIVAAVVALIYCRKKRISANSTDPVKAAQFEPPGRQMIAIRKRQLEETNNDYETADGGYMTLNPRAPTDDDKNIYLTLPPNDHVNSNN
Sequence of FcγRIIIa receptor (V158 variant) (P08637 other isoform, or with tags, fused parts or gaps mutant limits assumed): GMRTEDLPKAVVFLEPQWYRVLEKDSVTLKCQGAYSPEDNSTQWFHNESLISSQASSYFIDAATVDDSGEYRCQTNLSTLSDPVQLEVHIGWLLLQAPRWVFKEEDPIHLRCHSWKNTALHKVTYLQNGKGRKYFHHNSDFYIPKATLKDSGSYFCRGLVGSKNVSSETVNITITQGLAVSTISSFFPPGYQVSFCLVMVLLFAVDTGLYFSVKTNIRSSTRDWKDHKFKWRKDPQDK

Turning to isotype control antibody, in experiment [1], the luminescence, ADCP reporter, 3.048316 ng/mL came out at 45; the luminescence, ADCP reporter, 9.144947 ng/mL was 52; the luminescence, ADCP reporter, 27.43484 ng/mL came out at 42; the luminescence, ADCP reporter, 82.30453 ng/mL came out at 41. In experiment [1], the luminescence, ADCP reporter, 246.9136 ng/mL was 54; the luminescence, ADCP reporter, 740.7407 ng/mL is 60; the luminescence, ADCP reporter, 2,222.222 ng/mL was found to be 57; the luminescence, ADCP reporter, 6,666.667 ng/mL was 49. Further, the luminescence, ADCP reporter, 20,000 ng/mL in experiment [1] is 83. In addition, in experiment [2], the luminescence, ADCC reporter, 3.048316 ng/mL amounted to 314; the luminescence, ADCC reporter, 9.144947 ng/mL came out at 329; the luminescence, ADCC reporter, 27.43484 ng/mL was found to be 340; the luminescence, ADCC reporter, 82.30453 ng/mL turned out to be 377. In experiment [2], this substance had a luminescence, ADCC reporter, 246.9136 ng/mL of 381; a luminescence, ADCC reporter, 740.7407 ng/mL of 379; a luminescence, ADCC reporter, 2,222.222 ng/mL of 373; a luminescence, ADCC reporter, 6,666.667 ng/mL of 431. The substance also gave a luminescence, ADCC reporter, 20,000 ng/mL in experiment [2] of 399.
